Test results taken from patent US20070036810A1, “Cyclic amp response element activator proteins and uses related thereto” (priority 2003, published 2007).

Experiments:
Format in all cases: cell-based
[1] = test system: GAL4 DNA binding sites (UAS-Luc, pFR-Luc reporter); test: GAL4 DNA binding domain fusion transactivation assay (pFR-Luc) in HEK 293 cells; settings: normalized to pCMV-BD vector
Excerpt: To determine if CREAP proteins can act as a transcription activators, various regions of all 3 CREAP homologs (amino acids 300-650 of CREAP1, amino acids 296-694 of CREAP2 and amino acids 335-635 of CREAP3) were expressed as fusion proteins with the DNA binding domain of GAL4 and tested for the ability to activate expression of a reporter gene linked to GAL4 protein binding sequences (UAS-Luc (pFR-Luc reporter). Briefly, the indicated regions of CREAP1, CREAP2 and CREAP3 were amplified by PCR and subcloned in frame into pCMV-BD vector (Stratagene) encoding GAL4 DNA binding domain. Selected plasmids and empty vector (pCMV-SPORT6) were transfected into HEK 293 cells at 75 ng/well using Fugene6 transfection reagent (Roche) as described above. pFR-Luc reporter (Stratagene) encoding firefly luciferase gene driven by minimal promoter linked to 5 concatamerized GAL4 binding sites (UAS) was co-transfected at 100 ng/well. As a positive control, the reporter was also co-transfected with a plasmid encoding GAL4-CREB fusion protein (Stratagene) alone or in the presence of pFC-PKA an expression construct encoding catalytic subunit of protein kinase A (Stratagene) to activate the CREB kinase inducible activation domain. Fold induction was compared to the reporter's activity measured in the cells transfected with pCMV-BD an expression vector carrying GAL4 DNA binding domain only.
Expression constructs encoding full length CREAP1, CREAP2 and CREAP3 as well as a Gal4 DNA binding domain alone or fused with C-terminal portions of CREAP1, CREAP2 and CREAP3 were tested for the ability to induce expression of a luciferase gene controled by a minimal promoter linked to GAL4 DNA binding sites (pFRLuciferase). The data shown are normalized to the value seen with pCMV-BD vector co-transfected with pFR-Luc reporter.

[2] = test system: CRE-like element of IL-8 promoter (pCREL-Luc); test: pCREL-Luc reporter (concatamerized CRE-like site) assay; settings: minimal promoter carrying concatamerized CRE-like site; data not shown
Excerpt: The pIL-8Luc reporter was constructed by insertion of the −1491 to +43 region of the human IL-8 gene into pGL3Basic vector (Promega, Inc). PCR was used to generate a wild type minimal IL-8 promoter as well as point mutants. Mutations in AP-1, C/EBP, NF-κB were as described by Wu et al. (Wu et al. J. Biol. Chem., 272:2396-2403 (1997)). The sequence of a putative CRE-like site TGACATAA was mutated to TCGATCAA. Promoter constructs carrying 6 concatamerised copies of CRE-like response element (pCREL-Luc) or 5 copies of CRE-like element TGACACAA found in human PEPCK and CAPL promoters (pCREL2-Luc) were prepared by ligating PCR amplified sequences into pTAL-Luc (BD Biosciences). All techniques were performed using conventional methods.
In order to determine if the “CRE-like element” was directly responsive to CREAP1 or MAP3K11, the ability of both genes to activate a minimal promoter carrying concatamerized CRE-like site (pCREL-Luc) was examined. In addition, we studied the effect of PMA known inducer of AP-1.

GAL4-CREB fusion protein = test: GAL4-CREB activation assay in HLR cell line; settings: HLR cell line with integrated pFR-Luc reporter, normalized to pCMV-BD vector
Procedure: To determine if CREAP proteins can directly activate CREB1 protein, the expression constructs of CREAP1, CREAP2 and CREAP3 were transfected individually or with GAL4-CREB plasmid (Stratagene) into HLR cell line (Stratagene) carrying genomic DNA integrated copies of pFR-Luc reporter. Briefly, HLR cells were maintained per manufacturer's instructions. Selected plasmids and either empty vector (pCMV-BD) or GAL4-CREB plasmid were transfected at 75 ng/well using Fugene6 transfection reagent (Roche) as described above. As a positive control pFC-PKA an expression construct encoding catalytic subunit of protein kinase A (Stratagene) was also co-trasfected with GAL4-CREB. Fold of activation was compared to the reporter's activity measured in the cells transfected with empty vector.
The ability of full length CREAP1, CREAP2 and CREAP3 to induce the activity of GAL4-CREB fusion protein (Stratagene) was tested. The data presented are normalized to the value seen with pCMV-BD vector. […] Note the fold induction obtained with positive control is lower when compared to the data from Table 6 when all the plasmids including the reporter were transiently transfected.

[3] = target: T1, ATF2-GAL4 fusion molecule (Homo sapiens, UniProt P15336); test: In vivo kinase assay, ATF2-GAL4 fusion in HLR cells; settings: 40 hours after transfection
T1 construct: host or cells: HLR cell line (5x GAL4 element-luciferase reporter)
T1 sequence (P15336 with tags, fused parts or gaps limits assumed): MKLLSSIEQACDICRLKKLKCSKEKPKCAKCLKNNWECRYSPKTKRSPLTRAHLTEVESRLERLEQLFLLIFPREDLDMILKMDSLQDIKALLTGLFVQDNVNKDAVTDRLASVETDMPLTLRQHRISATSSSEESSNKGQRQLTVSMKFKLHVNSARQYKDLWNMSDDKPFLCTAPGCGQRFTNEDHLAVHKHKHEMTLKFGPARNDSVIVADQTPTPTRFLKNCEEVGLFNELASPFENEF
Procedure: For in vivo kinase assay, activation domains of CREB or ATF2 transcription factors fused with the yeast GAL4 DNA binding domain (1-147 Amino Acids) constructs are used (Stratagene, PathDetect In Vivo Signal Transduction Pathway trans-reporting Systems). The HLR cell line that contains a 5× GAL4 DNA binding element and TATA box driving luciferase reporter is used per manufacturer's protocol (Stratagene). 10^4 HLR cells are split into each well of 96 well tissue culture plates. After 16 hours, cells are transfected with 100 ng of Creb-GAL4 or ATF2-GAL4 fusion constructs, 30 ng of Renilla luciferase control plasmid together with 100 ng of pCMVSPORT6, pCMVSPORT-CREAP1, pFC-PKA or pFC-MEKK (Stratagene) activator plasmids respectively. Transfection is done with Fugene6 reagent (Roche Molecular Biochemicals, Basel, Switzerland) according to the manufacturers manual. Forty hours after transfection, a Dual-Glo Luciferase assay (Promega) is conducted using the manufacturer's protocol.
As CREAP1 strongly activates CRE promoter transcription, we next investigated whether CREAP1 works through the CREB pathway. […]

B1: CREAP1: human CRE activating protein 1, 650 amino acids, SEQ ID NO 2; expressed from pCMVSPORT-CREAP1 (protein)
chain: MATSNNPRKFSEKIALHNQKQAEETAAFEEVMKDLSLTRAARLQLQKSQYLQLGPSRGQYYGGSLPNVNQIGSGTMDLPFQPSGFLGEALAAAPVSLTPFQSSGLDTSRTTRHHGLVDRVYRERGRLGSPHRRPLSVDKHGRQADSCPYGTMYLSPPADTSWRRTNSDSALHQSTMTPTQPESFSSGSQDVHQKRVLLLTVPGMEETTSEADKNLSKQAWDTKKTGSRPKSCEVPGINIFPSADQENTTALIPATHNTGGSLPDLTNIHFPSPLPTPLDPEEPTFPALSSSSSTGNLAANLTHLGIGGAGQGMSTPGSSPQHRPAGVSPLSLSTEARRQQASPTLSPLSPITQAVAMDALSLEQQLPYAFFTQAGSQQPPPQPQPPPPPPPASQQPPPPPPPQAPVRLPPGGPLLPSASLTRGPQPPPLAVTVPSSLPQSPPENPGQPSMGIDIASAPALQQYRTSAGSPANQSPTSPVSNQGFSPGSSPQHTSTLGSVFGDAYYEQQMAARQANALSHQLEQFNMMENAISSSSLYSPGSTLNYSQAAMMGLTGSHGSLPDSQQLGYASHSGIPNIILTVTGESPPSLSKELTSSLAGVGDVSFDSDSQFPLDELKIDPLTLDGLHMLNDPDMVLADPATEDTFRMDRL
modifications: human
[1]
  Fold Induction: 2.468
[2]
  activation of pCREL-Luc: strongly activated
GAL4-CREB fusion protein
  Fold Induction: 6.122
[3]
  activation of the ATF2-GAL4 fusion molecule: unable to activate
